# The supplement of paper PMC10567573
# B1: NCF4 (parent)
# chain: FGPDSKSSALACTLPTLPAKVYVG
# B2: NEK8 (parent)
# chain: VVGTPCYISPELCEGKPYNQKSDI
# Variants of: B1
# Test: protein stability index of a GFP-peptide fusion (GPS, HEK-293T) (PSI 1-6); higher = more stable
# Settings: c terminus: a fixed tail appended
# 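Further: lentivirally expressed fusions sorted by FACS into six bins by GFP to DsRed ratio, PSI derived from sequencing read proportions per bin multiplied by bin number.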
row,Variant,protein stability index
1,LGPDSKSSALACTLPTLPAKVYVG [F1L],2.99
2,HGPDSKSSALACTLPTLPAKVYVG [F1H],3.84
3,DGPDSKSSALACTLPTLPAKVYVG [F1D],3.56
4,KGPDSKSSALACTLPTLPAKVYVG [F1K],3.17
5,EGPDSKSSALACTLPTLPAKVYVG [F1E],4.28
6,IGPDSKSSALACTLPTLPAKVYVG [F1I],2.64
7,GGPDSKSSALACTLPTLPAKVYVG [F1G],3.58
8,AGPDSKSSALACTLPTLPAKVYVG [F1A],3.11
9,CGPDSKSSALACTLPTLPAKVYVG [F1C],2.67

# Variants of: B2
# Test: as above
# Settings: c terminus: a fixed tail appended
row,Variant,protein stability index
1,VVGTPCYISPELCPGKPYNQKSDI [E14P],2.79
2,VVGTPCYISPELCMGKPYNQKSDI [E14M],2.28
3,VVGTPCYISPELCSGKPYNQKSDI [E14S],2.38
4,VVGTPCYISPELCFGKPYNQKSDI [E14F],1.82
5,VVGTPCYISPELCYGKPYNQKSDI [E14Y],2.25
6,VVGTPCYISPELCHGKPYNQKSDI [E14H],2.23
7,VVGTPCYISPELCTGKPYNQKSDI [E14T],2.73
8,VVGTPCYISPELCQGKPYNQKSDI [E14Q],2.37
9,VVGTPCYISPELCVGKPYNQKSDI [E14V],2.23
10,VVGTPCYISPELCEGKPYNQKSII [D23I],2.19
11,VVGTPCYISPELCEGKPYNQKSGI [D23G],1.82
12,VVGTPCYISPELCEGKPYNQKSPI [D23P],2.35
13,VVGTPCYISPELCEGKPYNQKSMI [D23M],2.18
14,VVGTPCYISPELCEGKPYNQKSCI [D23C],2.93
15,VVGTPCYISPELCEGKPYNQKSWI [D23W],1.25
16,VVGTPCYISPELCEGKPYNQKSRI [D23R],2.29
17,VVGTPCYISPELCEGKPYNQKSTI [D23T],2.63
18,VVGTPCYISPELCEGKPYNQKSEI [D23E],2.47
19,VVGTPCYISPELCEGKPYNQKVDI [S22V],2.36
20,VVGTPCYISPELCEGKPYNQKHDI [S22H],2.77
21,VVGTPCYISPELCEGKPYNQKWDI [S22W],1.26
22,VVGTPCYISPELCEGKPYNQKMDI [S22M],2.51

row,Variant,protein stability index
1,VVGTPCYISPELCEGKPYNQKFDI [S22F],2.5
2,VVGTPCYISPELCEGKPYNQKEDI [S22E],3.31
3,VVGTPCYISPELCEGKPYNQKTDI [S22T],2.95
4,VVGTPCYISPELCEGKPYNQKCDI [S22C],2.52
5,VVGTPCYISPELCEGKPYNQKNDI [S22N],2.58
6,VVGTPCYISPELCEGKPYNQKSDT [I24T],3.97
7,VVGTPCYISPELCEGKPYNQKSDH [I24H],3.18
8,VVGTPCYISPELCEGKPYNQKSDS [I24S],3.56
9,VVGTPCYISPELCEGKPYNQKSDN [I24N],3.35
10,VVGTPCYISPELCEGKPYNQKSDY [I24Y],3.08
11,VVGTPCYISPELCEGKPYNQKSDR [I24R],3.51
12,VVGTPCYISPELCEGKPYNQKSDM [I24M],2.95
13,VVGTPCYISPELCEGKPYNQKSDE [I24E],2.94
14,VVGTPCYISPELCEGKPYNQKSDF [I24F],2.51
15,VVATPCYISPELCEGKPYNQKSDI [G3A],2.31
16,VVYTPCYISPELCEGKPYNQKSDI [G3Y],1.65
17,VVDTPCYISPELCEGKPYNQKSDI [G3D],3.26
18,VVCTPCYISPELCEGKPYNQKSDI [G3C],2.23
19,VVLTPCYISPELCEGKPYNQKSDI [G3L],1.63
20,VVITPCYISPELCEGKPYNQKSDI [G3I],1.8
21,VVRTPCYISPELCEGKPYNQKSDI [G3R],2.74
22,VVWTPCYISPELCEGKPYNQKSDI [G3W],2.05

row,Variant,protein stability index
1,VVPTPCYISPELCEGKPYNQKSDI [G3P],3.38
2,VVGTPCYISPELCEGKPMNQKSDI [Y18M],3.15
3,VVGTPCYISPELCEGKPQNQKSDI [Y18Q],3.5
4,VVGTPCYISPELCEGKPDNQKSDI [Y18D],3.53
5,VVGTPCYISPELCEGKPVNQKSDI [Y18V],3.67
6,VVGTPCYISPELCEGKPLNQKSDI [Y18L],2.8
7,VVGTPCYISPELCEGKPNNQKSDI [Y18N],3.63
8,VVGTPCYISPELCEGKPTNQKSDI [Y18T],3.68
9,VVGTPCYISPELCEGKPHNQKSDI [Y18H],2.7
10,VVGTPWYISPELCEGKPYNQKSDI [C6W],2.5
11,VVGTPPYISPELCEGKPYNQKSDI [C6P],3.38
12,VVGTPDYISPELCEGKPYNQKSDI [C6D],4.4
13,VVGTPMYISPELCEGKPYNQKSDI [C6M],3.56
14,VVGTPSYISPELCEGKPYNQKSDI [C6S],3.08
15,VVGTPLYISPELCEGKPYNQKSDI [C6L],3.25
16,VVGTPIYISPELCEGKPYNQKSDI [C6I],3.07
17,VVGTPCYISPELCEEKPYNQKSDI [G15E],2.8
18,VVGTPCYISPELCEIKPYNQKSDI [G15I],2.41
19,VVGTPCYISPELCENKPYNQKSDI [G15N],2.68
20,VVGTPCYISPELCEHKPYNQKSDI [G15H],2.84
21,VVGTPCYISPELCESKPYNQKSDI [G15S],2.37
22,VVGTPCYISPELCELKPYNQKSDI [G15L],2.19

row,Variant,protein stability index
1,VVGTPCYISPELCETKPYNQKSDI [G15T],2.87
2,VVGTPCYCSPELCEGKPYNQKSDI [I8C],3.05
3,VVGTPCYSSPELCEGKPYNQKSDI [I8S],3.98
4,VVGTPCYNSPELCEGKPYNQKSDI [I8N],4.4
5,VVGTPCYPSPELCEGKPYNQKSDI [I8P],4.29
6,VVGTPCYTSPELCEGKPYNQKSDI [I8T],3.77
7,VVGTPCYGSPELCEGKPYNQKSDI [I8G],4.42
8,VVGTPCYHSPELCEGKPYNQKSDI [I8H],3.2
9,VVGTPCYASPELCEGKPYNQKSDI [I8A],4.4
10,VVGTPCYFSPELCEGKPYNQKSDI [I8F],2.9
11,VVGTPCYVSPELCEGKPYNQKSDI [I8V],4.03
12,VVGTPCYISPFLCEGKPYNQKSDI [E11F],1.5
13,VVGTPCYISPHLCEGKPYNQKSDI [E11H],2.03
14,VVGTPCYISPMLCEGKPYNQKSDI [E11M],2.32
15,VKGTPCYISPELCEGKPYNQKSDI [V2K],3.93
16,VWGTPCYISPELCEGKPYNQKSDI [V2W],2.8
17,VGGTPCYISPELCEGKPYNQKSDI [V2G],3.66
18,VEGTPCYISPELCEGKPYNQKSDI [V2E],4.59
19,VNGTPCYISPELCEGKPYNQKSDI [V2N],3.63
